Laboratory results from paper PMC9178005.

Assays:
[1] = target: Rob Cys281-Cy3B;RNA polymerase sigma70 holoenzyme (Escherichia coli;Escherichia coli, UniProt P0ACI0;P0A7Z4;P0A8V2;P0A8T7;P0A800;P00579 1-289;1-329;1-1342;1-1407;1-91;1-613, C147S;C247S|); experiment: single-molecule FRET
[2] = target: Rob Cys281-Cy3B;biotinylated RNAP holoenzyme (Escherichia coli;Escherichia coli?, UniProt P0ACI0;P0A7Z4;P0A8V2;P0A8T7;P0A800;P00579 1-289;1-329;1-1342;1-1407;1-91;1-613, C147S;C247S|); experiment: single-molecule FRET

Row | Binder | binding result [1] | binding result [2]
1 | micF DNA2-Cy5-biotin (bioDNA) (dsDNA, internal Cy5-dT in template strand) DNA 1: GTATTTGACAGCACTGAATGTCAAAACAAAACCTTCACTCGCAACTATAATGGGAGCTGTCACGGATGCAACTTTATTTATTACC DNA 2: GGTAATAAATAAAGTTGCATCCGTGACAGCTCCCATTATAGTTGCGAGTGAAGGTTTTGTTTTGACATTCAGTGCTGTCAAATAC | binds | 
2 | micF DNA2-Cy5 (dsDNA, internal Cy5-dT in template strand) DNA 1: GTATTTGACAGCACTGAATGTCAAAACAAAACCTTCACTCGCAACTATAATGGGAGCTGTCACGGATGCAACTTTATTTATTACC DNA 2: GGTAATAAATAAAGTTGCATCCGTGACAGCTCCCATTATAGTTGCGAGTGAAGGTTTTGTTTTGACATTCAGTGCTGTCAAATAC |  | binds
